This experiment deals with tetra-methyl rhodamine-labeled Aβ42 (TMR-Aβ) (UniProt P05067). Kind of experiment: other fluorescence titration.

The source of these data is publication PMC6647844.

Chain of tetra-methyl rhodamine-labeled Aβ42 (TMR-Aβ) (P05067 672-713): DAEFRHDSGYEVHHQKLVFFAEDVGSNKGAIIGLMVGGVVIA

Usually Kd stands for the concentration at which binding is half-saturated. Low values mean higher affinity, high ones lower affinity. In turn, “granulin-3, fully reduced (rGRN-3) (from UniProt P28799 206-261) (natural protein)” showed a Kd of 2550 nM.
